Laboratory results: US6136558A, “Heregulin variants” (Genentech, Inc., priority 1998, dated 2000)
Ends that are not written are not given here.

Experiments:
[1] = target: ErbB-4 receptor-Ig fusion (human) (UniProt Q15303); test: phage ELISA, soluble ErbB-4-Ig as competitor
[2] = target: ErbB-3 receptor-Ig fusion (human) (UniProt P21860); test: phage ELISA, soluble ErbB-3-Ig as competitor (only one value in the row, read as the phage column)
[3] = test system: ErbB-2/3-Ig; test: Inhibition of 125I-HRG binding to ErbB-2/3-Ig by soluble variant
[4] = target: ErbB-3-Ig; test: Phage ELISA, binding to ErbB-3-Ig; conditions: phage ELISA
Excerpt: (§1) To produce phage displaying the domains, mutagenesis reaction mixtures were electrotransformed into XL1-Blue™ cells (Stratagene, Inc., La Jolla, Calif.), according to the manufacturer's protocol. The transformed cells were then infected with 10^11 plaque-forming units (pfu) M13K07 helper phage (Promega Corp., Madison, Wis.). […] The phage were resuspended in phosphate-buffered saline (PBS: 0.01 M sodium phosphate, 0.1 M NaCl, pH 7.5).
(§2) Microtiter plates (Nunc Maxisorp™ 96-well plates, Inter Med, Denmark) for phage ELISA were prepared as follows. The wells were precoated overnight with 0.5 μg of rabbit anti-human IgG (Fc gamma fragment-specific) antibodies (Jackson Immunoresearch, West Grove, Pa.) in 100 μL 50 mM NaCO3 (pH 9.6). The wells were blocked for 30 minutes (min) with 200 μL PBS containing 0.1% bovine serum albumin (BSA) and rinsed with wash buffer (PBS containing 0.05% Tween 20™). The wells were then coated with 0.1 μg ErbB-2/3-Ig in binding buffer (PBS, 0.1% BSA, 0.05% Tween 20™) for 1 h, and washed again.
(§3) Following incubation for 2 h at room temperature, plates were washed extensively and treated with a 1:900 dilution of anti-M13 horseradish peroxidase conjugate (Pharmacia, Piscataway, N.J.) for 20 min. The amount of phage binding was determined by assaying horseradish peroxidase activity using o-phenylenediamine dihydrochloride) substrate solution (Sigma Chemical Company, St. Louis, Mo.).
(§4) Alanine-substituted variants were generated by site-directed mutagenesis according to Kunkel et al., Methods Enzymol. […] A series of oligonucleotides was used to generate a series of constructs that expressed a series of variants in which consecutive residues were mutated to alanine.
(§5) In addition, phagemid vectors for use in producing phage displaying mutated HRG-β1 EGFs containing various combinations of the above mutations ("combination variants") were prepared by Kunkel mutagenesis, using templates prepared from several of the above-described variants. […] Some of the variants and combination variants were also tested for relative ErbB-4-Ig affinity to assess specificity.
(§6) The affinities of the variants for ErbB-3-Ig and ErbB-4-Ig were determined to assess specificity.

[5] = target: ErbB-2/3 receptor-Ig fusion (ErbB-2/3-Ig); test: Phage ELISA, competition with soluble ErbB-2/3-Ig; assay type: binding; conditions: EGF-like domain displayed monovalently on phage as pIII fusion; soluble ErbB-2/3-Ig competing half of the phage off the plate; average of duplicate experiments
Excerpt: as §1, §2, §3

[6] = target: ErbB-4-Ig; test: Inhibition of 125I-HRG-β1 177-244 binding to ErbB-4-Ig by soluble protein; conditions: soluble HRG-β1 EGF variant free of pIII; inhibition of 125I-HRG binding; read-out: ErbB-4-Ig EC50
Method: (§7) The affinities of the Trx-variant fusions for ErbB receptor-Ig fusions were determined by measuring inhibition of ^125 I-HRG-β1 177-244 binding to ErbB-3-Ig and ErbB-4-Ig. Receptor fusions were coated on plates (Nunc Maxisorp C™ break-apart strip wells, Inter Med, Denmark) via anti-human IgG, as described in Example 1 for phage ELISA. Binding assays were carried out with a constant amount of ^125 I-HRG-β1 177-244 (100-300 pM) and varying concentrations (100 pM-4 μM) of unlabeled Trx-variant fusion. Following incubation for 1-3 h at room temperature, plates were washed, and the amount of bound ^125 I-HRG-β1 177-244 in each well was counted on a gamma counter (Isodata, ICN Biomedic Systems, Huntsville, Ala.). For the ErbB-3 binding assays, the blocking buffer was TBST (0.025 M Tris-HC1 [pH 7.5], 0.15 M NaCl, 0.02% Tween 20™) containing 1% BSA; the binding buffer was RPMI 1640™ cell culture media (Gibco-BRL, Gaithersburg, Md.) containing 2 mM glutamine, 100 U/mL penicillin, 100 μg/mL streptomycin, 10 mM HEPES buffer (pH 7.2), 0.2% BSA; and the wash buffer was TBST. For the ErbB-4 binding assays, PBS containing 1% BSA was used as the blocking and binding buffers, and the wash buffer was PBS containing 0.05% Tween 20™.

[7] = target: ErbB-4-Ig; test: Phage ELISA, binding to ErbB-4-Ig; conditions: phage ELISA
Excerpt: as §1, §2, §3, §4, §5, §6

[8] = target: ErbB-3-Ig; test: Inhibition of 125I-HRG-β1 177-244 binding to ErbB-3-Ig by soluble protein; conditions: soluble HRG-β1 EGF variant free of pIII; inhibition of 125I-HRG binding; read-out: ErbB-3-Ig EC50
Method: as §7

[9] = target: ErbB-4 receptor-Ig fusion (human) (UniProt Q15303); test: phage ELISA, soluble ErbB-4-Ig as competitor; remark: listed apart in the source
[10] = target: ErbB-2/3 receptor-Ig fusion (human) (UniProt P04626); test: phage ELISA, soluble ErbB-2/3-Ig as competitor
[11] = target: ErbB-3 receptor-Ig fusion (human) (UniProt P21860); test: phage ELISA, soluble ErbB-3-Ig as competitor
[12] = target: ErbB-3 receptor-Ig fusion (human) (UniProt P21860); test: phage ELISA, ratio to wild-type HRG8 phage (reference itself)
[13] = target: ErbB-4 receptor-Ig fusion (human) (UniProt Q15303); test: as above
[14] = target: ErbB-3 receptor-Ig fusion (human) (UniProt P21860); test: displacement of 125I-HRG from ErbB-3-Ig
[15] = target: ErbB-4 receptor-Ig fusion (human) (UniProt Q15303); test: displacement of 125I-HRG from ErbB-4-Ig
[16] = target: ErbB-2/3 receptor-Ig fusion (human) (UniProt P04626); test: displacement of 125I-HRG from ErbB-2/3-Ig
[17] = target: ErbB-2/3 heterodimers on MCF7 breast cancer carcinoma cells (Homo sapiens (Human), UniProt P04626); test: cell-based or functional assay
[18] = relative to wild-type HRG-β1 EGF phage in same run, above 1 = higher affinity than wild-type

Molecule HRG-β1 177-244 V199A on phage (ligand) has an EC50 [1] of 47 nM and an EC50 [2] of 27 nM.

With “HRG8: wild-type HRG-β1 177-228 minimal EGF-like domain; on phage via (GGGS)3 linker to pIII 323, or soluble (SHLVKCAEKEKTFCVNGGECFMVKDLSNPSRYLCKCPNEFTGDRCQNYVMAS; not fully specified; cysteine pairing not given here) [reference compound]” the “affinity for the 2/3-heterodimer versus the 3/3 homodimer” value ([3]; ErbB-2/3-Ig versus ErbB-3-Ig homodimer) was “approximately 100 fold”, the EC50 ([3]; soluble HRG-β1 EGF variant free of pIII, inhibition of 125I-HRG binding) was 0.033 ± 0.003 nM and the EC50 ([4]; reference value of Table 13, read-out: wild-type HRG-β1 EGF-phage EC50 for ErbB3-Ig) was 135 ± 104 nM. For the same molecule, the “Phage ErbB-3 EC50 (wt)/EC50 (mut)” value [4, 18] was 1, the EC50 [5] was 11 nM and the “ErbB-2/3-Ig EC50” value [5] was “slight affinity enhancement”. For the same molecule, the EC50 [6] was 1.5 ± 0.1 nM, the EC50 ([7]; reference value of Table 13, read-out: wild-type HRG-β1 EGF-phage EC50 for ErbB4-Ig) was 163 ± 112 nM and the “Phage ErbB-4 EC50 (wt)/EC50 (mut)” value [7, 18] was 1. It also gave an EC50 [8] of 2.3 ± 0.2 nM.

B1: HRG8 (wild-type HRG-β1 EGF displayed on phage) (ligand)
chain: SHLVKCAEKEKTFCVNGGECFMVKDLSNPSRYLCKCPNEFTGDRCQNYVMAS
B1 showed an EC50 [9] of 163 nM, an EC50 [10] of 11 nM and an EC50 [11] of 135 nM. The EC50(wt)/EC50(mut) [12] was 1 and the EC50(wt)/EC50(mut) [13] was 1.

B2: HRG8 (WT), soluble wild-type HRG-β1 EGF (ligand)
chain: SHLVKCAEKEKTFCVNGGECFMVKDLSNPSRYLCKCPNEFTGDRCQNYVMAS
modifications: ends and bridges not checked; cysteine pairing not given here
For B2, the EC50 [14] was 2.3 nM, the EC50 [15] was 1.5 nM and the EC50 [16] was 0.033 nM. The “KIRA EC50 (tyrosine phosphorylation of the ErbB-2 receptor on MCF7 cells)” value [17] was 0.212 nM.
